Here are results for 1 substance from patent US12366576B2, “Compositions, assays, and methods for direct modulation of fatty acid metabolism” (Dana-Farber Cancer Institute, Inc., priority 2016, dated 2025).

For the experiment, the target named is T1, VLCAD (Mus musculus, UniProt P50544).
T1 construct: As for native VLCAD from MEF lysates; endogenous in cells; host or cells: SV-40-transformed wild-type mouse embryonic fibroblasts (lysate)
T1 sequence (P50544 42-656): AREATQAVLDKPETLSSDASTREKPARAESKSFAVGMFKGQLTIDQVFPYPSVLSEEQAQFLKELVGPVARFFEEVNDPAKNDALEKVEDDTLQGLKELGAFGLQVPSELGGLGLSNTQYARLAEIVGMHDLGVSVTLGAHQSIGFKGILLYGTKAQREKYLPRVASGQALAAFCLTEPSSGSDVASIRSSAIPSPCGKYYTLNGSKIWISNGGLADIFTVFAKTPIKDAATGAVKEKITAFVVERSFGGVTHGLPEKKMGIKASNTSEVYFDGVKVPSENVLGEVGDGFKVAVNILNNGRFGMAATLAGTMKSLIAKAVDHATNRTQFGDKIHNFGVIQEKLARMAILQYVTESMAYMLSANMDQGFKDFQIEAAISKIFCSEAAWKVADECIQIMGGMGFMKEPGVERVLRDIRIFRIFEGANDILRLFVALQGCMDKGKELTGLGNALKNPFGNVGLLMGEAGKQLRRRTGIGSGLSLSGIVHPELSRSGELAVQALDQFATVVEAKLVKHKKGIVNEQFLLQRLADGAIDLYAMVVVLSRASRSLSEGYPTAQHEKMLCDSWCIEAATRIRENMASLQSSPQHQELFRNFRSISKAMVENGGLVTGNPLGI
Description: Biotinylated SAHB streptavidin pulldown from MEF lysates with MS-based protein identification. The experiment is classed as binding. As to conditions: wild-type MEF lysates; three biological replicates; thresholds fold change >8 and p<0.005 versus vehicle. As to the method:
An exploratory proteomics analysis was conducted to identify proteins that interact with the MCL-1 BH3 domain helix. An extensive library of MCL-1 stapled BH3 peptides (FIG. 2) was generated to both identify novel protein interactors by mass spectrometry and then deploy the stapled peptide constructs as novel probes to dissect and pharmacologically modulate the identified protein interactors and associated signaling pathways. As an example, an N-terminally biotinylated stapled peptide designed based on the sequence of MCL-1's BH3 domain (Btn-MCL-1 SAHBD), or vehicle, was incubated with wild-type mouse embryonic fibroblast (MEF) lysates, followed by high stringency streptavidin capture. To validate the proteomics workflow and ensure that Btn-MCL-1 SAHBD could, in fact, engage protein interactors in a lysate, eluates were first run on a gel for anti-MCL-1 Western analysis. […]
Wild-type MEFs were trypsinized, washed once with cold PBS, and lysed on ice with NP-40 lysis buffer (50 mM Tris, pH 7.4, 150 mM NaCl, 0.5% (v/v) NP-40, complete protease inhibitor pellet (Roche)) using 1 ml of lysis buffer for every 10 million cells lysed. Cellular debris was pelleted at 14,000 g for 10 min at 4° C., and the supernatant was quantified using the BCA Protein Assay Kit (Thermo Fisher Scientific). […]

Bridge positions count the residues as written; N and C are the ends. Square brackets hold non-standard residues; d marks the D form. Ends that are not written are not given here. S5 = C=CCCC[C@](C)(N)C(=O)O

As to “MCL-1 SAHBD: hydrocarbon-stapled peptide mimicking the MCL-1 BH3 domain (Stabilized Alpha-Helix of BCL-2 Domain), SEQ ID NO:19 (RKALETLRRVGDGV[S5]RNH[S5]TAF; staple 15-19)”, the “VLCAD identified by MS in pulldown eluates” value is listed as “repeatedly identified as a high stringency interactor”.
